Some targets named below: HLA-A*02:01; HLA-A*02:02; HLA-A*02:03; HLA-A*02:06; HLA-A*68:02.
Holding throughout (assay): IEDB peptide-MHC binding, purified MHC/competitive/radioactivity; ≥ and ≤ were set here for values at or beyond the usual limits of such assays
Setting [1] is: source organism: Hepacivirus hominis.
Where [2] appears, read: source organism: Mammarenavirus brazilense.
The mark [3] stands for this setting: source organism: Vaccinia virus WR.
Where [4] appears, read: source organism: Mammarenavirus choriomeningitidis.
[5] abbreviates: source organism: Mammarenavirus whitewaterense.
The mark [6] stands for this setting: source organism: Mammarenavirus lassaense.

pIC50: −log10 of the molar value.

Turning to LLFQLCTFT, the negative logarithm of the IC50 (pIC50) was 6.08 in the experiment with HLA-A*02:01 (source organism: SARS-CoV1); 7.66 in the experiment with HLA-A*02:02 (source organism: SARS-CoV1); 8.42 with HLA-A*02:03 (source organism: SARS-CoV1); 7.96 with HLA-A*02:06 (source organism: SARS-CoV1); 6.07 with HLA-A*68:02 (source organism: SARS-CoV1).

For the sequence LLIAITAFT, the negative-log IC50 (pIC50) with HLA-A*02:01 (setting [1]) is 6.76; in the experiment with HLA-A*02:02 (setting [1]), 7.43; with HLA-A*02:03 (setting [1]), 7.92; with HLA-A*02:06 (setting [1]), 6.34; with HLA-A*68:02 (setting [1]), 5.98.

Regarding LLLEWLAEV, the pIC50 with HLA-A*02:01 (source organism: SARS-CoV1) is 9.66; with HLA-A*02:02 (source organism: SARS-CoV1), 9.96; in the experiment with HLA-A*02:03 (source organism: SARS-CoV1), 9.20; with HLA-A*02:06 (source organism: SARS-CoV1) it was 9.96; in the experiment with HLA-A*68:02 (source organism: SARS-CoV1), 6.47.

In the case of LLLWISVKV, the pIC50 with HLA-A*02:01 (source organism: SARS-CoV1) is 7.89; with HLA-A*02:02 (source organism: SARS-CoV1) it was 7.03; with HLA-A*02:03 (source organism: SARS-CoV1), 6.70; with HLA-A*02:06 (source organism: SARS-CoV1), 8.00; with HLA-A*68:02 (source organism: SARS-CoV1) it was 5.56.

Regarding LLMCAVHPEL, the pIC50 with HLA-A*02:01 (setting [1]) was 7.27; in the experiment with HLA-A*02:02 (setting [1]), 7.60; with HLA-A*02:03 (setting [1]), 6.75; in the experiment with HLA-A*02:06 (setting [1]), 6.35; in the experiment with HLA-A*68:02 (setting [1]) it was 5.87.

In the case of LLPDALLFTL, the negative-log IC50 (pIC50) with HLA-A*02:01 (setting [2]) is 7.11; in the experiment with HLA-A*02:02 (setting [2]), 8.33; with HLA-A*02:03 (setting [2]), 6.13; in the experiment with HLA-A*02:06 (setting [2]), 7.10; with HLA-A*68:02 (setting [2]) it was 6.63.

As to LLPLTSLVIT, the negative-log IC50 (pIC50) in the experiment with HLA-A*02:01 (setting [3]) was 5.93; with HLA-A*02:02 (setting [3]) it was 6.00; with HLA-A*02:03 (setting [3]) it was 5.88; with HLA-A*02:06 (setting [3]) it was 5.79; with HLA-A*68:02 (setting [3]) it was 5.83.

For the sequence LLSAGIFGA, the pIC50 with HLA-A*02:01 (source organism: SARS-CoV1) is 8.09; with HLA-A*02:02 (source organism: SARS-CoV1), 7.92; with HLA-A*02:03 (source organism: SARS-CoV1), 7.82; with HLA-A*02:06 (source organism: SARS-CoV1), 7.60; in the experiment with HLA-A*68:02 (source organism: SARS-CoV1), 6.97.

Turning to LLSCISVPV, the pIC50 with HLA-A*02:01 (setting [1]) is 8.60; in the experiment with HLA-A*02:02 (setting [1]) it was 8.85; with HLA-A*02:03 (setting [1]), 8.33; with HLA-A*02:06 (setting [1]) it was 7.77; with HLA-A*68:02 (setting [1]) it was 7.82.

Turning to LLTDTIESA, the pIC50 with HLA-A*02:01 (setting [3]) is 7.60; with HLA-A*02:02 (setting [3]) it was 7.77; with HLA-A*02:03 (setting [3]), 7.96; in the experiment with HLA-A*02:06 (setting [3]), 8.23; in the experiment with HLA-A*68:02 (setting [3]), 5.91.

In the case of LLWFLTGTFV, the negative logarithm of the IC50 (pIC50) with HLA-A*02:01 (setting [3]) was 9.49; with HLA-A*02:02 (setting [3]), 8.62; with HLA-A*02:03 (setting [3]), 8.04; with HLA-A*02:06 (setting [3]) it was 7.74; with HLA-A*68:02 (setting [3]) it was 9.89.

LMANLAPHLL: the negative-log IC50 (pIC50) in the experiment with HLA-A*02:01 (source organism: SARS-CoV1) was 7.52; with HLA-A*02:02 (source organism: SARS-CoV1), 9.64; with HLA-A*02:03 (source organism: SARS-CoV1), 8.82; in the experiment with HLA-A*02:06 (source organism: SARS-CoV1), 6.94; with HLA-A*68:02 (source organism: SARS-CoV1) it was 5.93.

For LMDCIIFES, the negative-log IC50 (pIC50) with HLA-A*02:01 (setting [4]) is 7.00; with HLA-A*02:02 (setting [4]), 7.52; with HLA-A*02:03 (setting [4]) it was 6.08; with HLA-A*02:06 (setting [4]) it was 6.52; with HLA-A*68:02 (setting [4]) it was 6.37.

On to LMDSIFVSTM, for which the pIC50 with HLA-A*02:01 (setting [3]) was 6.59; in the experiment with HLA-A*02:02 (setting [3]) it was 8.43; with HLA-A*02:03 (setting [3]), 8.09; with HLA-A*02:06 (setting [3]) it was 6.21; in the experiment with HLA-A*68:02 (setting [3]), 6.17.

On to LMGHFSWWTA, for which the pIC50 with HLA-A*02:01 (source organism: SARS-CoV1) was 7.74; with HLA-A*02:02 (source organism: SARS-CoV1), 7.72; with HLA-A*02:03 (source organism: SARS-CoV1), 6.87; with HLA-A*02:06 (source organism: SARS-CoV1) it was 7.01; with HLA-A*68:02 (source organism: SARS-CoV1) it was 7.09.

As for LMIFISSFL, the negative logarithm of the IC50 (pIC50) with HLA-A*02:01 (setting [3]) is 9.49; with HLA-A*02:02 (setting [3]), 9.19; in the experiment with HLA-A*02:03 (setting [3]) it was 9.89; with HLA-A*02:06 (setting [3]) it was 7.74; with HLA-A*68:02 (setting [3]) it was 7.46.

Turning to LMIGNYFSGV, the negative logarithm of the IC50 (pIC50) with HLA-A*02:01 (setting [3]) was 9.57; with HLA-A*02:02 (setting [3]) it was 9.89; in the experiment with HLA-A*02:03 (setting [3]) it was 10.03; with HLA-A*02:06 (setting [3]) it was 9.89; with HLA-A*68:02 (setting [3]), 6.80.

Regarding LMSFTILCL, the pIC50 with HLA-A*02:01 (source organism: SARS-CoV1) was 9.85; with HLA-A*02:02 (source organism: SARS-CoV1) it was 9.57; with HLA-A*02:03 (source organism: SARS-CoV1), 7.80; in the experiment with HLA-A*02:06 (source organism: SARS-CoV1) it was 8.74; with HLA-A*68:02 (source organism: SARS-CoV1), 6.15.

In the case of LMSFTILCLV, the negative-log IC50 (pIC50) with HLA-A*02:01 (source organism: SARS-CoV1) is 8.08; in the experiment with HLA-A*02:02 (source organism: SARS-CoV1) it was 9.47; with HLA-A*02:03 (source organism: SARS-CoV1) it was 7.04; in the experiment with HLA-A*02:06 (source organism: SARS-CoV1), 7.40; in the experiment with HLA-A*68:02 (source organism: SARS-CoV1), 7.40.

As for LMTLDDLAI, the pIC50 with HLA-A*02:01 (setting [3]) is 7.13; in the experiment with HLA-A*02:02 (setting [3]), 7.28; in the experiment with HLA-A*02:03 (setting [3]), 7.12; with HLA-A*02:06 (setting [3]), 6.54; in the experiment with HLA-A*68:02 (setting [3]), 5.36.

Consider LNASYITPYV, for which the pIC50 in the experiment with HLA-A*02:01 (setting [5]) is 7.06; in the experiment with HLA-A*02:02 (setting [5]) it was 7.48; with HLA-A*02:03 (setting [5]) it was 5.97; with HLA-A*02:06 (setting [5]), 7.42; with HLA-A*68:02 (setting [5]), 7.89.

Take LNCLSLLLSV: the pIC50 is 6.72 in the experiment with HLA-A*02:01 (setting [6]); 6.91 with HLA-A*02:02 (setting [6]); 6.64 in the experiment with HLA-A*02:03 (setting [6]); 6.60 with HLA-A*02:06 (setting [6]); 5.39 in the experiment with HLA-A*68:02 (setting [6]).

For the sequence LTNAISSRV, the pIC50 with HLA-A*02:01 (setting [3]) was 6.04; with HLA-A*02:02 (setting [3]), 6.84; with HLA-A*02:03 (setting [3]) it was 7.72; with HLA-A*02:06 (setting [3]), 6.84; in the experiment with HLA-A*68:02 (setting [3]) it was 7.80.

Consider LTTVFIKYV, for which the pIC50 with HLA-A*02:01 (setting [3]) was 5.97; with HLA-A*02:02 (setting [3]) it was 5.44; in the experiment with HLA-A*02:03 (setting [3]) it was 6.17; with HLA-A*02:06 (setting [3]) it was 6.89; with HLA-A*68:02 (setting [3]), 6.48.

Source of the values: the Immune Epitope Database (IEDB).
